B1: biphenyl dioxygenase (BPDO_(B356)) β-subunit from Pandoraea pnomenusa B-356 (enzyme, UniProt Q46373 1-186, looked up)
chain: MISTPLSKEFEWPAKPVSLELQHQVEQFYYREAQLLDHHAFQAWFALLAEDIHYWMPIRTVRTAREQGLEYVPAGANAHFDDTHATMYGRIRQKTSDLNWAEDPPSRTRHLVSNVIVREMDTPGTLEVASAFLLYRSRLERQVDVFAGERRDVLRIADNPLGFQIAKRTIILDQSTVLANNLSVFF
notes: the final models include the complete β-subunit; Co-produced and co-purified with the α-subunit as the (αβ)3 oxygenase; three copies in the hexamer; also called β of BphAE; BPDO β; source: heterologously produced and purified anaerobically as described previously [17]
B2: biphenyl dioxygenase (BPDO_(B356)) α-subunit from Pandoraea pnomenusa B-356 (enzyme)
chain: MSSTMKDTQEAPVRWSRNWTPDAIRALVDQDNGKLDARIYADQDLYQLELERVFGRSWLMLGHETHIPKIGDYLTTYMGEDPVIMVRQKDQSIKVFLNQCRHRGMRIVRSDGGNAKAFTCTYHGWAYDIAGNLVNVPFEKEAFCDKKEGDCGFDKADWGPLQARVETYKGLVFANWDPEAPDLKTYLSDAMPYMDVMLDRTEAGTEAIGGIQKWVIPCNWKFAAEQFCSDMYHAGTMSHLSGVLAGLPPEMDLTQIQLSKNGNQFRSAWGGHGAGWFINDSSILLSVVGPKITQYWTQGPAAEKAARRVPQLPILDMFGQHMTVFPTCSFLPGINTIRTWHPRGPNEVEVWAFVLVDADAPEDIKEEFRLQNIRTFNAGGVFEQDDGENWVEIQRVMRGHKAKSTSLCAKMGLNVPNKNNPAYPGKTAYVYAEEAARGMYHHWSRMMSEPSWDTLKP
notes: Co-produced and co-purified with the β-subunit as the (αβ)3 oxygenase; three copies in the hexamer; Holds a Rieske Fe2S2 cluster and a mononuclear Fe(II); also called α of BphAE; source: heterologously produced and purified anaerobically as described previously [17]

Key:
[1] = target: B2; test: crystal structure; crystals grown anaerobically by sitting drop vapor diffusion (citrate pH 5.8 or MES pH 6.0), space group R3, one αβ protomer in the asymmetric unit; three αβ protomers about the crystallographic three-fold axis form the (αβ)3 hexamer; without and with biphenyl; details: both partners purified
[2] = target: the molecule itself; test: as above

Row | Binder | binding result [1] | binding result [2]
1 | B1 | binds | binds
2 | B2 |  | binds

From PMC3536784 (PLoS ONE, 2013)
